Laboratory results: patent US6261772

What was measured:
[1] = molecular target: T1, VP16-HA-Tap full length (Homo sapiens) (UniProt Q9UBU9); assay: one_hybrid
T1 sequence: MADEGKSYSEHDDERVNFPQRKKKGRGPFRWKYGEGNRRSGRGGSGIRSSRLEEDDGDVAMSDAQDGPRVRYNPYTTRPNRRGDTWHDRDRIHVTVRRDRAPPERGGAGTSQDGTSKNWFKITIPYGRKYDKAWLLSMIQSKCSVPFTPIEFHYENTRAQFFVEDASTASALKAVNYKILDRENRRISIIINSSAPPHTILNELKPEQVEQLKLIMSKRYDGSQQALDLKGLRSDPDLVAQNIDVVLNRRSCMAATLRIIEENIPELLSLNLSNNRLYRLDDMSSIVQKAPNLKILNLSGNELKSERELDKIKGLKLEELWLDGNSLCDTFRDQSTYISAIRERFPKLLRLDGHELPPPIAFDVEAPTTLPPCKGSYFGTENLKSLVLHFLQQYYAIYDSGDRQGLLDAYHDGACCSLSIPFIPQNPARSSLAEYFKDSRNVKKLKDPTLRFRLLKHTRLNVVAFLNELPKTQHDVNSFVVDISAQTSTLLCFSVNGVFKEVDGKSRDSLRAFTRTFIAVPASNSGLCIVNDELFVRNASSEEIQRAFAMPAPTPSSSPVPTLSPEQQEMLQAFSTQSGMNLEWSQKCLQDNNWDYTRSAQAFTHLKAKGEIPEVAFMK

[2] = molecular target: T2, Tat-Tap full length (Homo sapiens) (UniProt Q9UBU9); assay: cell_activity; conditions: 293T
T2 sequence: T1 sequence

Substance	activity ([1]; yeast three-hybrid) [mOD/ml]	activity ([1]; yeast three-hybrid beta-gal, VP16 alone 11) [mOD/ml]	activity (fold activation) [2]
HIV-1 TAR	< 4	–	–
MPMV CTE	–	602	20
iron response element	< 4	–	–
CTE antisense	< 4	–	–
